The source of these data is patent US10562935B2, “Stapled peptides and uses thereof” (London Health Sciences Centre Research Inc., priority 2015, dated 2020).

Bridges are numbered along the chain shown (N, C = ends).

Data set [1] concerns RHAMM-overexpressing (LR21) cells. As to the kind of experiment: Cell migration assay (Boyden chamber, Chemicon ECM510). Conditions: for Migration (% inhib.): % inhibition relative to positive control; for inhibition of cell migration (in words): 10 ng/mL peptide, 20 hours, compared to 30% serum control. It counts as cell-based. The method, then:
Compounds 132, 133, 150-152, 156-161, 265-269, 275, 277, and 278 were evaluated for their ability to inhibit cell migration. Cell migration assays were performed using Chemicon Assay Kits (ECM510 (Migration); Billerica, Mass., USA) according to the manufacturer's protocol. Briefly, sub-confluent cultures of RHAMM-overexpressing (LR21) cells were serum starved overnight. 7.5×10^4 cells were then plated in the upper chamber of a Boyden chamber. either in the presence or absence of 10 ng/mL of peptide. 30% fetal bovine serum in DMEM was used as the chemo-attractant in the lower chamber. The number of cells that had crossed the membrane after 20 hours was assessed using the CYQUANT GR Dye and lysis buffer solution provided in the kit. Fluorescence was measured with a fluorescent plate reader using a 480/520 nm filter set.
Values are the mean and SDM of n=3 replicates. *p<0.05, **p<0.01. All statistics compare to 30% serum control. In FIGS. 41-43, where bars are labeled with two compound numbers (“133/150” and “135/152”) this means that the data were pooled for the indicated compounds, i.e., for the non-acetylated and acetylated versions of the indicated peptides.

Data set [2] in a line: Circular dichroism (CD) spectroscopy of linear and stapled peptides in water or 40% TFE/water (Example 3). It counts as physicochemical. Conditions: for [0]208 mean residue ellipticity: λ = 208 nm; for [0]222 mean residue ellipticity: λ = 222 nm. The procedure: CD spectra were obtained on a Jasco J-810 spectropolarimeter and recorded in the range of 180-260 nm. Peptide solutions were prepared with a 0.1M phosphate buffer solution to a concentration of 0.5 mM. The measurements were performed in quartz cuvettes with a path length of 1 mm and a scanning speed of 10-50 nm/min. Five individual data points were averaged by the instrument in order to obtain the reported CD spectrum. The measurements were carried out at 20° C. A blank solution of 0.1M phosphate buffer solution was run before every measurement in order to baseline correct for any UV-interference observed from the buffer.
CD data for the 14- and 15-mer peptides containing HABD2 (VSKLRSQLVKRKQN, SEQ ID NO: 2) and HABD1 (NLKQKIKHVVKLKDE, SEQ ID NO: 4) and cyclized derivatives thereof in water or 40% TFE/water are provided below in Tables 8 (water) and 9 (40% TFE/water). Tables 8 and 9 provide the mean residue ellipicity ([θ] deg cm^2 dmol^−1) at λ=222 and 208 nm for each peptide and ratios of ellipticities at 222/208. Each of the peptides was acetylated at its amino terminus and amidated at its carboxy terminus.
CD data for linear peptides having the sequences […] (SEQ ID NO: 5) and […] (SEQ ID NO: 6) and cyclized derivatives thereof in water or 40% TFE/water are provided below in Tables 12 (water) and 13 (40% TFE/water). Tables 12 and 13 provide the mean residue ellipicity ([0] deg cm^2 dmol^−1) at λ=222 and 208 nm for each peptide and ratios of ellipticities at 222/208. Each of the peptides was acetylated at its amino terminus and amidated at its carboxy terminus.
Circular Dichroism (CD) spectroscopy is a tool that is used to study the secondary structure characteristics of a compound. Peptides and proteins can fold into organized structures, such as alpha helices and beta sheets, which are the result of complex hydrogen bonding and other interactions between amino acid side chains, as well as adopt a random coil formation, which lacks much of the organization of the other two structures. The CD spectrum of an alpha helix is characterized by two local minima at 208 nm and 222 nm. The ratio of the values of the molar ellipticities at these wavelengths ([θ]222/[θ]208) is a strong indication of the relative helicity of a compound; a compound is more helical when the ratio of these two values approaches 1.0. Synthetic constraints introduced to the peptide backbone can force a peptide chain to increase its helical character. These constraints can be introduced by staples, of varying types, which allow cyclization of the peptide backbone to take place.
(CD spectra are sensitive to the conformation of chiral molecules.)

Where [3] appears, read: [θ]222/[θ]208 ratio in water, summary tables 15, 17, 19.
Where [4] appears, read: as repeated in tables 16, 18, 20.

Regarding “Ac-(cyclo-4,8)-NLK[EKIKK]VVKLKDE-NH2 (Ac-NLKEKIKKVVKLKDE-NH2; lactam 4-8; SMILES CC[C@H](C)[C@@H]1NC(=O)[C@H](CCCCN)NC(=O)[C@@H](NC(=O)[C@H](CCCCN)NC(=O)[C@H](CC(C)C)NC(=O)[C@H](CC(N)=O)NC(C)=O)CCC(=O)NCCCC[C@@H](C(=O)N[C@H](C(=O)N[C@H](C(=O)N[C@@H](CCCCN)C(=O)N[C@@H](CC(C)C)C(=O)N[C@@H](CCCCN)C(=O)N[C@@H](CC(=O)O)C(=O)N[C@@H](CCC(=O)O)C(N)=O)C(C)C)C(C)C)NC(=O)[C@H](CCCCN)NC1=O) [Compound 157]”, the “Migration (% inhib.)” value in data set [1] was found to be 0 % inhib. Moreover, in data set [2] (setting [3]), the “[θ]222/[θ]208 ratio of ellipticities” value is listed as 0.38. Moreover, the “[θ]222/[θ]208 ratio of ellipticities” value in data set [2] (setting [4]) is on record as 0.38. For the same substance, in data set [2] (in 40% TFE/water), the “[0]222/[0]208 ratio of ellipticities” value was 0.80, the “[0]208 mean residue ellipticity” value is recorded as -1.56E+04 deg cm^2 dmol^−1 and the “[0]222 mean residue ellipticity” value is on record as -1.25E+04 deg cm^2 dmol^−1. Also, in data set [2] (in water), the “[0]222/[0]208 ratio of ellipticities” value is listed as 0.38, the “alpha-helical character by CD (in words)” value was “decreased helicity”, the “[0]208 mean residue ellipticity” value is on record as -6.40E+03 deg cm^2 dmol^−1 and the “[0]222 mean residue ellipticity” value was -2.46E+03 deg cm^2 dmol^−1.
As to “Ac-(cyclo-5,9)-NLKQ[EIKHK]VKLKDE-NH2 (Ac-NLKQEIKHKVKLKDE-NH2; lactam 5-9; SMILES CC[C@H](C)[C@@H]1NC(=O)[C@@H](NC(=O)[C@H](CCC(N)=O)NC(=O)[C@H](CCCCN)NC(=O)[C@H](CC(C)C)NC(=O)[C@H](CC(N)=O)NC(C)=O)CCC(=O)NCCCC[C@@H](C(=O)N[C@H](C(=O)N[C@@H](CCCCN)C(=O)N[C@@H](CC(C)C)C(=O)N[C@@H](CCCCN)C(=O)N[C@@H](CC(=O)O)C(=O)N[C@@H](CCC(=O)O)C(N)=O)C(C)C)NC(=O)[C@H](Cc2c[nH]cn2)NC(=O)[C@H](CCCCN)NC1=O) [Compound 158]”, in data set [1], the “inhibition of cell migration (in words)” value was “significantly inhibit cell migration” and the “Migration (% inhib.)” value is given as 43 % inhib. For the same substance, the “[θ]222/[θ]208 ratio of ellipticities” value in data set [2] (setting [3]) came out at 0.43. Moreover, the “[θ]222/[θ]208 ratio of ellipticities” value in data set [2] (setting [4]) is given as 0.43. In addition, in data set [2] (in 40% TFE/water), the “[0]222/[0]208 ratio of ellipticities” value is on record as 0.84, the “[0]208 mean residue ellipticity” value is reported as -1.70E+04 deg cm^2 dmol^−1 and the “[0]222 mean residue ellipticity” value is given as -1.24E+04 deg cm^2 dmol^−1. Moreover, in data set [2] (in water), the “[0]222/[0]208 ratio of ellipticities” value is 0.43, the “[0]208 mean residue ellipticity” value is reported as -6.60E+03 deg cm^2 dmol^−1 and the “[0]222 mean residue ellipticity” value was -2.83E+03 deg cm^2 dmol^−1.
“Ac-(cyclo-6,10)-NLKQK[EKHVK]KLKDE-NH2 (Ac-NLKQKEKHVKKLKDE-NH2; lactam 6-10; SMILES CC(=O)N[C@@H](CC(N)=O)C(=O)N[C@@H](CC(C)C)C(=O)N[C@@H](CCCCN)C(=O)N[C@@H](CCC(N)=O)C(=O)N[C@@H](CCCCN)C(=O)N[C@H]1CCC(=O)NCCCC[C@@H](C(=O)N[C@@H](CCCCN)C(=O)N[C@@H](CC(C)C)C(=O)N[C@@H](CCCCN)C(=O)N[C@@H](CC(=O)O)C(=O)N[C@@H](CCC(=O)O)C(N)=O)NC(=O)[C@H](C(C)C)NC(=O)[C@H](Cc2c[nH]cn2)NC(=O)[C@H](CCCCN)NC1=O) [Compound 159]”: the “Migration (% inhib.)” value in data set [1] is given as 0 % inhib. The “[θ]222/[θ]208 ratio of ellipticities” value in data set [2] (setting [3]) and in data set [2] (setting [4]) was 0.44 each time. In addition, the “[0]222/[0]208 ratio of ellipticities” value is 0.85 in data set [2] (in 40% TFE/water) and 0.44 in data set [2] (in water). The “[0]208 mean residue ellipticity” value in data set [2] (in water) is recorded as -5.95E+03 deg cm^2 dmol^−1. Besides, the “[0]222 mean residue ellipticity” value in data set [2] (in 40% TFE/water) is -1.26E+04 deg cm^2 dmol^−1; in data set [2] (in water) it was -2.61E+03 deg cm^2 dmol^−1.
Turning to “Ac-(cyclo-7,11)-NLKQKI[EHVVK]LKDE-NH2 (Ac-NLKQKIEHVVKLKDE-NH2; lactam 7-11; SMILES CC[C@H](C)[C@H](NC(=O)[C@H](CCCCN)NC(=O)[C@H](CCC(N)=O)NC(=O)[C@H](CCCCN)NC(=O)[C@H](CC(C)C)NC(=O)[C@H](CC(N)=O)NC(C)=O)C(=O)N[C@H]1CCC(=O)NCCCC[C@@H](C(=O)N[C@@H](CC(C)C)C(=O)N[C@@H](CCCCN)C(=O)N[C@@H](CC(=O)O)C(=O)N[C@@H](CCC(=O)O)C(N)=O)NC(=O)[C@H](C(C)C)NC(=O)[C@H](C(C)C)NC(=O)[C@H](Cc2c[nH]cn2)NC1=O) [Compound 160]”, in data set [1], the “Migration (% inhib.)” value is reported as 0 % inhib. Moreover, in data set [2] (setting [3]), the “[θ]222/[θ]208 ratio of ellipticities” value was 0.55. Moreover, in data set [2] (setting [4]), the “[θ]222/[θ]208 ratio of ellipticities” value came to 0.55. For the same substance, in data set [2] (in 40% TFE/water), the “[0]222/[0]208 ratio of ellipticities” value came to 0.86, the “[0]208 mean residue ellipticity” value is reported as -1.65E+04 deg cm^2 dmol^−1 and the “[0]222 mean residue ellipticity” value was -1.42E+04 deg cm^2 dmol^−1. Moreover, in data set [2] (in water), the “[0]222/[0]208 ratio of ellipticities” value is 0.55, the “[0]208 mean residue ellipticity” value is -6.98E+03 deg cm^2 dmol^−1 and the “[0]222 mean residue ellipticity” value is -3.85E+03 deg cm^2 dmol^−1.
Regarding “Ac-(cyclo-8,12)-NLKQKIK[EVVKK]KDE-NH2 (Ac-NLKQKIKEVVKKKDE-NH2; lactam 8-12; SMILES CC[C@H](C)[C@H](NC(=O)[C@H](CCCCN)NC(=O)[C@H](CCC(N)=O)NC(=O)[C@H](CCCCN)NC(=O)[C@H](CC(C)C)NC(=O)[C@H](CC(N)=O)NC(C)=O)C(=O)N[C@@H](CCCCN)C(=O)N[C@H]1CCC(=O)NCCCC[C@@H](C(=O)N[C@@H](CCCCN)C(=O)N[C@@H](CC(=O)O)C(=O)N[C@@H](CCC(=O)O)C(N)=O)NC(=O)[C@H](CCCCN)NC(=O)[C@H](C(C)C)NC(=O)[C@H](C(C)C)NC1=O) [Compound 161]”, in data set [1], the “inhibition of cell migration (in words)” value is on record as “significantly inhibit cell migration” and the “Migration (% inhib.)” value is 36 % inhib. The “[θ]222/[θ]208 ratio of ellipticities” value in data set [2] (setting [3]) is 0.31. For the same substance, the “[θ]222/[θ]208 ratio of ellipticities” value in data set [2] (setting [4]) was found to be 0.31. In data set [2] (in 40% TFE/water), the “[0]222/[0]208 ratio of ellipticities” value is recorded as 0.82, the “[0]208 mean residue ellipticity” value is on record as -1.96E+04 deg cm^2 dmol^−1 and the “[0]222 mean residue ellipticity” value was -1.60E+04 deg cm^2 dmol^−1. For the same substance, in data set [2] (in water), the “[0]222/[0]208 ratio of ellipticities” value turned out to be 0.31, the “alpha-helical character by CD (in words)” value was “decreased helicity”, the “[0]208 mean residue ellipticity” value is reported as -5.85E+03 deg cm^2 dmol^−1 and the “[0]222 mean residue ellipticity” value is on record as -1.80E+03 deg cm^2 dmol^−1.
